Laboratory results taken from patent EP4424703A1.

Tests used:
[1] = molecular target: human transferrin receptor-1 on human TfR-positive cells (SK-OV-3, hCMEC/D3) (human) (UniProt P02786); assay: flow cytometry on SK-OV-3 cells, 200 nM Ztaq-ABD (negative control) co-incubated with 25 µg/mL Tf-488
[2] = molecular target: human transferrin receptor-1 on human TfR-positive cells (SK-OV-3, hCMEC/D3) (human) (UniProt P02786); assay: flow cytometry on SK-OV-3 cells, 600 nM Ztaq-ABD (negative control) co-incubated with 25 µg/mL Tf-488

UniProt P02786, sequence (P02786 whole entry): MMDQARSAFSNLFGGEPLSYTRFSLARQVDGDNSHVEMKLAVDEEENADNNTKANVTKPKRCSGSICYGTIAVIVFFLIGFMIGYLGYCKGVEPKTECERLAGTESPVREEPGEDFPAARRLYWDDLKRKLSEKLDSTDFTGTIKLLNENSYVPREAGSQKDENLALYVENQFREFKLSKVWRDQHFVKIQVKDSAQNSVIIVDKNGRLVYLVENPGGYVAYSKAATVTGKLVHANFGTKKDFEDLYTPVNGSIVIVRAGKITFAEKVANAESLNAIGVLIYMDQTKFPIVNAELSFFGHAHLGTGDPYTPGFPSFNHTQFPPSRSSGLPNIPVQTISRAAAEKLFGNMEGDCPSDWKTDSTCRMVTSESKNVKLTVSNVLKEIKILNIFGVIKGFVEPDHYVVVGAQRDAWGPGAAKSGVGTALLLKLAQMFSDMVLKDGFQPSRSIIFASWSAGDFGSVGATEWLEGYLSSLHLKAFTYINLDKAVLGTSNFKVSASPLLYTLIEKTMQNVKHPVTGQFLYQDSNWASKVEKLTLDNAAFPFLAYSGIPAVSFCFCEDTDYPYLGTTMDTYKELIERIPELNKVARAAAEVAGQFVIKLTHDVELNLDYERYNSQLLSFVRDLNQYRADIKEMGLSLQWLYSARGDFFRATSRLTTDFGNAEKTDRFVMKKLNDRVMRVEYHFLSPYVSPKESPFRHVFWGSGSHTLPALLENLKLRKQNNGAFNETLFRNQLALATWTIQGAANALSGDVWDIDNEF

| Substance | MFI 640/660 nm [1] | MFI 640/660 nm [2] |
| --- | --- | --- |
| Ztaq-ABD | 1.62 MFI | – |
| Ztaq-ABD (designed binder) | – | 3.69 MFI |
